From US20260201030A1, “ANTIBODY, ANTIBODY-DRUG CONJUGATE THEREOF AND USE THEREOF” (EVOPOINT BIOSCIENCES CO., LTD., priority 2021, published 2026)

Assays:
human Claudin18.2 [1] = target: T1, human Claudin18.2 (Homo sapiens, UniProt P56856); experiment: Cell-based ELISA affinity of humanized antibodies on L929-Claudin18.2 (human) cells; assay type: binding; conditions: L929-Claudin18.2 cells
T1 construct: expressed in transfected cells

human Claudin18.2 [2] = target: T1, human Claudin18.2; experiment: Cell-based ELISA affinity on NUGC4 cells endogenously expressing human Claudin18.2; assay type: binding; conditions: for NUCG4 Maximum signal value: OD450
human Claudin18.2 [3] = target: T1, human Claudin18.2; experiment: Cell-based FACS affinity on HEK293T-Claudin18.2 (human) cells; assay type: binding
Protocol: The affinity of the anti-human Claudin18.2 humanized antibodies was detected by flow cytometry. The experimental procedures were as follows: The adherent cultured HEK293T-Claudin18.2 (human), NUGC4-Claudin18.2 (human) and NUGC4 cells were digested, collected by centrifugation, and washed three times with pre-cooled PBS. The cells were resuspended in 1% BSA (in PBS) and added to a 96-well pointed bottom plate at 3×10^5 cells/well, with a volume of 50 μL per well. Each test antibody was diluted with 1% BSA (in PBS) (starting at 100 μg/mL, diluted in a 3-fold gradient, for 10 concentration points). The test antibody subjected to gradient dilution was added to the cells at 50 μL/well, and the mixture was well mixed and incubated at 4° C. for 1 h. The cells were collected by centrifugation, washed three times with pre-cooled PBS, and resuspended in 50 μL of 1% BSA (in PBS). 1 μL of a fluorescent secondary antibody (Biolegend-410712) was added to each well, and the mixture was well mixed and incubated at 4° C. for 0.5 h. The cells were collected by centrifugation, washed three times with pre-cooled PBS, resuspended in 200 μL of PBS, and assayed on a machine.

human Claudin18.1 = target: T2, human Claudin18.1 (Homo sapiens, UniProt P56856); experiment: FACS specificity of humanized antibodies on HEK293T-Claudin18.1 (human) cells; assay type: binding; conditions: antibody 50 μg/mL, PE secondary antibody
T2 construct: expressed in transfected cells
Protocol: The specificity of the anti-human Claudin18.2 humanized monoclonal antibodies was determined by flow cytometry (FACS). The experimental procedures were as follows: HEK293T-Claudin18.1 (human) cells were digested, collected by centrifugation, washed three times with pre-cooled PBS, resuspended in 1% BSA (in PBS), and added to a 96-well pointed bottom plate at 3×10^5 cells/well. Each test antibody with a final concentration of 50 μg/mL was added, and the mixture was incubated at 4° C. for 1 h. The cells were washed three times with pre-cooled PBS, and then 1 μL of a fluorescent secondary antibody (APC: Biolegend-410712 or PE: BioLegend-410708) was added to each well. The mixture was incubated at 4° C. for 0.5 h, and the cells were washed three times with pre-cooled PBS, then resuspended, and assayed on a flow cytometer. For reference, anti-human Claudin18.1 positive control antibodies (positive control antibody-1 and positive control antibody-2) were included in the experiment.

[4] = system: HEK293T-Claudin18.2 (human) cells; experiment: ADCC activity, fluorescein reporter system (Jurkat-NFAT-CD16a); assay type: cell-based; conditions: HEK293T-Claudin18.2 (human) target cells, 5 h
Protocol: ADCC activity of the anti-human Claudin18.2 humanized monoclonal antibodies was detected by a fluorescein reporter system. The experiment was carried out using a Rhinogen® Bio-Glory One-Step Firefly Luciferase Assay kit (Suzhou Rhino Bio, RA-GL04), following the manufacturer's instructions. The experimental procedures were as follows: HEK293T-Claudin18.2 (human) cells were digested, collected by centrifugation, resuspended in DMEM+1% FBS, and then plated at 50000 cells/well. Jurkat-NFAT-CD16a cells were collected by centrifugation and resuspended in 1640+1% FBS, and then plated at 100000 cells/well. Each test antibody subjected to gradient dilution was added, and the mixture was incubated at 37° C. for 5 h. 50 μL of a Bio-Glory One-Step luciferase substrate was added to each well, and readings were taken on a microplate reader (MD, SpectraMax i3x).

[5] = system: HEK293T-Claudin18.2 (human) cells; experiment: CDC activity, guinea pig serum killing experiment; assay type: cell-based; conditions: 20% guinea pig serum, 5 h
Protocol: CDC activity of the anti-human Claudin18.2 humanized monoclonal antibodies was detected by a guinea pig serum killing experiment. The experimental procedures were as follows: HEK293T-Claudin18.2 (human) cells were digested, collected by centrifugation, plated at 50000 cells/well, and incubated overnight. The supernatant was discarded, and 100 μL of each test antibody subjected to gradient dilution with DMEM+20% guinea pig serum (Beijing Bersee, BM361Y) was added to each well. The mixture was incubated at 37° C. for 5 h, and 20 μL of a CCK8 reagent (Suzhou Rhino Bio, QDY-003-D) was added to each well. The mixture was allowed to react for 1-4 h, and readings were taken at 450 nm on a microplate reader.

human Claudin18.2 [6] = target: T1, human Claudin18.2; experiment: Cell ELISA affinity before and after conjugation, L929-claudin 18.2 (human) cells; assay type: binding; conditions: FIG. 8A
Protocol: (§1) The cell binding affinity of the antibody before and after conjugation to the toxin was detected according to a method similar to that described in Example 2.2. L929-claudin 18.2 (human) or NUGC4 cells were digested with trypsin, collected by centrifugation, washed three times with pre-cooled PBS, resuspended, added to a 96-well plate at 5×10^4 cells/well, and incubated overnight. The cells were fixed with 4% paraformaldehyde and blocked with 2% BSA (in PBS) at 37° C. for 2 h. Each ADC drug or antibody subjected to gradient dilution was added, and the mixture was incubated at 37° C. for 2 h. […] A TMB substrate was added for color development, and after the reaction was stopped by 2 M HCl, OD450 nm values were read on a microplate reader.

human Claudin18.2 [7] = target: T1, human Claudin18.2; experiment: Cell ELISA affinity before and after conjugation, NUGC4 cells; assay type: binding; conditions: FIG. 8B
Protocol: as §1

| Molecule | Affinity detected by cell-based ELISA (EC50, ng/mL) L929-Claudin18.2 (human Claudin18.2 [1]) | NUCG4 EC50 (human Claudin18.2 [2]) | NUCG4 Maximum signal value (human Claudin18.2 [2]) | HEK293T-Claudin18.2 EC50 (human Claudin18.2 [3]) | HEK293T-Claudin18.2 Maximum signal value (human Claudin18.2 [3]) | Mean PE fluorescence signal value (human Claudin18.1) | Median PE fluorescence signal value (human Claudin18.1) | Positive rate (%) (human Claudin18.1) | ADCC activity EC50 [4] | CDC activity EC50 [5] | change in affinity for the cells before and after conjugation (human Claudin18.2 [6]) | change in affinity for the cells before and after conjugation (human Claudin18.2 [7]) |
| --- | --- | --- | --- | --- | --- | --- | --- | --- | --- | --- | --- | --- |
| 25C7A5-HZ1: humanized anti-Claudin18.2 antibody, VH SEQ ID NO: 1, VL SEQ ID NO: 2, human IgG1/Kappa constant regions (antibody, V domains shown, human IgG1/kappa constant regions) VH: QVQLVQSGAEVKKPGSSVKVSCKASGYTFTNYWLHWVRQAPGQGLEWMGMMHPISGSSNYAQKFQGRATLTVDKSTSTAYMELSSLRSEDTAVYYCARGLLSAMDYWGQGTLVTVSS VL: EIVLTQSPATLSLSPGERATLSCKASENVKTYVSWYQQKPGQSPRLLIYEASNRYTGVPARFSGSGSATDFTLTISSLEPEDFAVYFCGQTYSFPPTFGQGTKVEIK | 13.41 ng/mL | 0.1012 mg/L | 0.304 | 0.292 mg/L | 113572 | 583 | 504 | 0.54% | 0.04649 mg/L | 3.137 mg/L | no significant changes in the affinity | no significant changes in the affinity |
| 25C7A5-HZ2: humanized anti-Claudin18.2 antibody, VH SEQ ID NO: 3, VL SEQ ID NO: 2, human IgG1/Kappa constant regions (antibody, V domains shown, human IgG1/kappa constant regions) VH: QVQLVESGAEVKKPGSSVKVSCKASGYTFTNYWLHWVRQAPGQGLEWMGMMHPISGSSNYAQKFQGRATLTVDKSTSTAYMELSSLRSEDTAVYYCARGLLSAMDYWGQGTLVTVSS VL: EIVLTQSPATLSLSPGERATLSCKASENVKTYVSWYQQKPGQSPRLLIYEASNRYTGVPARFSGSGSATDFTLTISSLEPEDFAVYFCGQTYSFPPTFGQGTKVEIK | 14.80 ± 3.1(N = 2) ng/mL | 0.1225 mg/L | 0.313 | 0.2928 mg/L | 119070 | 559 | 471 | 0.55% | 0.04875 mg/L | 3.283 mg/L | no significant changes in the affinity | no significant changes in the affinity |
